Data as given in patent publication US20170342144A1 (Sanofi, published 2017).

T1: human TGFβ2 (human, UniProt P61812 303-414)
T1 construct: also called TGFβ2 homodimer
T1 sequence: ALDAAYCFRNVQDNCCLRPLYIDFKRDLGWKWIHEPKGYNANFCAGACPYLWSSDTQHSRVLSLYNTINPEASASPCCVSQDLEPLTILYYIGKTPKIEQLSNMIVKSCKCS

T2: human TGFβ3 (human, UniProt P10600 301-412)
T2 sequence: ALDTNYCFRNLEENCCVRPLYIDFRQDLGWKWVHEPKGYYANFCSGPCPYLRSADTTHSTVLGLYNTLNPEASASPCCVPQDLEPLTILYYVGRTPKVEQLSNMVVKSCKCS

B1: D56R (antibody, V domains shown)
VH: QVQLVQSGAEVKKPGSSVKVSCKASGYTFSSNVISWVRQAPGQGLEWMGGVIPIVRIANYAQRFKGRVTITADESTSTTYMELSSLRSEDTAVYYCASTLGLVLDAMDYWGQGTLVTVSS
VL: ETVLTQSPGTLSLSPGERATLSCRASQSLGSSYLAWYQQKPGQAPRLLIYGASSRAPGIPDRFSGSGSGTDFTLTISRLEPEDFAVYYCQQYADSPITFGQGTRLEIK
notes: GC1008 IgG4 variant
B2: E74L (antibody, V domains shown)
VH: QVQLVQSGAEVKKPGSSVKVSCKASGYTFSSNVISWVRQAPGQGLEWMGGVIPIVDIANYAQRFKGRVTITADLSTSTTYMELSSLRSEDTAVYYCASTLGLVLDAMDYWGQGTLVTVSS
VL: ETVLTQSPGTLSLSPGERATLSCRASQSLGSSYLAWYQQKPGQAPRLLIYGASSRAPGIPDRFSGSGSGTDFTLTISRLEPEDFAVYYCQQYADSPITFGQGTRLEIK
notes: GC1008 IgG4 variant
B3: E74R (antibody, V domains shown)
VH: QVQLVQSGAEVKKPGSSVKVSCKASGYTFSSNVISWVRQAPGQGLEWMGGVIPIVDIANYAQRFKGRVTITADRSTSTTYMELSSLRSEDTAVYYCASTLGLVLDAMDYWGQGTLVTVSS
VL: ETVLTQSPGTLSLSPGERATLSCRASQSLGSSYLAWYQQKPGQAPRLLIYGASSRAPGIPDRFSGSGSGTDFTLTISRLEPEDFAVYYCQQYADSPITFGQGTRLEIK
notes: GC1008 IgG4 variant
B4: E74W (antibody, V domains shown)
VH: QVQLVQSGAEVKKPGSSVKVSCKASGYTFSSNVISWVRQAPGQGLEWMGGVIPIVDIANYAQRFKGRVTITADWSTSTTYMELSSLRSEDTAVYYCASTLGLVLDAMDYWGQGTLVTVSS
VL: ETVLTQSPGTLSLSPGERATLSCRASQSLGSSYLAWYQQKPGQAPRLLIYGASSRAPGIPDRFSGSGSGTDFTLTISRLEPEDFAVYYCQQYADSPITFGQGTRLEIK
notes: GC1008 IgG4 variant
B5: I52L (antibody, V domains shown)
VH: QVQLVQSGAEVKKPGSSVKVSCKASGYTFSSNVISWVRQAPGQGLEWMGGVLPIVDIANYAQRFKGRVTITADESTSTTYMELSSLRSEDTAVYYCASTLGLVLDAMDYWGQGTLVTVSS
VL: ETVLTQSPGTLSLSPGERATLSCRASQSLGSSYLAWYQQKPGQAPRLLIYGASSRAPGIPDRFSGSGSGTDFTLTISRLEPEDFAVYYCQQYADSPITFGQGTRLEIK
notes: GC1008 IgG4 variant
B6: I54F (antibody, V domains shown)
VH: QVQLVQSGAEVKKPGSSVKVSCKASGYTFSSNVISWVRQAPGQGLEWMGGVIPFVDIANYAQRFKGRVTITADESTSTTYMELSSLRSEDTAVYYCASTLGLVLDAMDYWGQGTLVTVSS
VL: ETVLTQSPGTLSLSPGERATLSCRASQSLGSSYLAWYQQKPGQAPRLLIYGASSRAPGIPDRFSGSGSGTDFTLTISRLEPEDFAVYYCQQYADSPITFGQGTRLEIK
notes: GC1008 IgG4 variant
B7: I54T (antibody, V domains shown)
VH: QVQLVQSGAEVKKPGSSVKVSCKASGYTFSSNVISWVRQAPGQGLEWMGGVIPTVDIANYAQRFKGRVTITADESTSTTYMELSSLRSEDTAVYYCASTLGLVLDAMDYWGQGTLVTVSS
VL: ETVLTQSPGTLSLSPGERATLSCRASQSLGSSYLAWYQQKPGQAPRLLIYGASSRAPGIPDRFSGSGSGTDFTLTISRLEPEDFAVYYCQQYADSPITFGQGTRLEIK
notes: GC1008 IgG4 variant
B8: I54W (antibody, V domains shown)
VH: QVQLVQSGAEVKKPGSSVKVSCKASGYTFSSNVISWVRQAPGQGLEWMGGVIPWVDIANYAQRFKGRVTITADESTSTTYMELSSLRSEDTAVYYCASTLGLVLDAMDYWGQGTLVTVSS
VL: ETVLTQSPGTLSLSPGERATLSCRASQSLGSSYLAWYQQKPGQAPRLLIYGASSRAPGIPDRFSGSGSGTDFTLTISRLEPEDFAVYYCQQYADSPITFGQGTRLEIK
notes: GC1008 IgG4 variant
B9: N32E (antibody, V domains shown)
VH: QVQLVQSGAEVKKPGSSVKVSCKASGYTFSSEVISWVRQAPGQGLEWMGGVIPIVDIANYAQRFKGRVTITADESTSTTYMELSSLRSEDTAVYYCASTLGLVLDAMDYWGQGTLVTVSS
VL: ETVLTQSPGTLSLSPGERATLSCRASQSLGSSYLAWYQQKPGQAPRLLIYGASSRAPGIPDRFSGSGSGTDFTLTISRLEPEDFAVYYCQQYADSPITFGQGTRLEIK
notes: GC1008 IgG4 variant
B10: N32K (antibody, V domains shown)
VH: QVQLVQSGAEVKKPGSSVKVSCKASGYTFSSKVISWVRQAPGQGLEWMGGVIPIVDIANYAQRFKGRVTITADESTSTTYMELSSLRSEDTAVYYCASTLGLVLDAMDYWGQGTLVTVSS
VL: ETVLTQSPGTLSLSPGERATLSCRASQSLGSSYLAWYQQKPGQAPRLLIYGASSRAPGIPDRFSGSGSGTDFTLTISRLEPEDFAVYYCQQYADSPITFGQGTRLEIK
notes: GC1008 IgG4 variant

Experiments:
human TGFβ2 [1] = molecular target: T1, human TGFβ2; assay: Biacore, 3.33-90 nM, 1:1 global fit, vs wt GC1008
Description: (§1) In FIG. 6C, seventeen mutants were selected and scaled up to produce sufficient amount of purified protein for KD (equilibrium constant=kd/ka) analysis by Biacore. Multiple concentrations (90, 30, 10 and 3.33 nM) were used in duplicate on the 150 RU level TGFβ1, 2, and 3 immobilized surfaces. KD was calculated using global curve fitting analysis for a 1-to-1 Langmuir binding model. The experimental data from all four concentrations were used for calculation except for I54N and I54R mutants, where only the top 2 concentrations were used. The fold changes in KD were compared to the fold changes in kd (off rate) presented in FIG. 6B, and a heat map was generated for visualization. Similar fold changes were observed from the two data sets, confirming the validity of using kd as a parameter for screening of 155 single mutants as shown in FIG. 6B.

human TGFβ3 [2] = molecular target: T2, human TGFβ3; assay: Biacore, 3.33-90 nM, 1:1 global fit, vs wt GC1008
Description: as §1

human TGFβ1 [3] = molecular target: T3, human TGFβ1 (human, UniProt P01137 279-390); assay: Biacore, 3.33-90 nM, 1:1 global fit, vs wt GC1008
T3 construct: also called TGFβ1 homodimer
T3 sequence (P01137 279-390 limits assumed): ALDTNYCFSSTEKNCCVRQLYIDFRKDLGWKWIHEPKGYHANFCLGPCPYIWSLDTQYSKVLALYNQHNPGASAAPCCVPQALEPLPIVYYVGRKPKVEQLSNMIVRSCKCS
Description: as §1

human TGFβ2 [4] = molecular target: T1, human TGFβ2; assay: Biacore off-rate vs wt GC1008, 50 nM
Procedure, shortened: (§2)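 Surface plasmon resonance on a Biacore 3000 measured how fast purified antibody variants dissociated from TGFβ isoforms immobilized at about 100 RU. Variants carried single heavy- or light-chain substitutions and were produced by transient Expi293F transfection with Protein A cleanup. Samples at 50 nM were tested in duplicate, and each variant kd was divided by the wild-type control kd to give fold change.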

human TGFβ3 [5] = molecular target: T2, human TGFβ3; assay: Biacore off-rate vs wt GC1008, 50 nM
Procedure, shortened: as §2

human TGFβ1 [6] = molecular target: T3, human TGFβ1; assay: Biacore off-rate vs wt GC1008, 50 nM
Procedure, shortened: as §2

human TGFβ2 [7] = molecular target: T1, human TGFβ2; assay: Biacore off-rate vs wt GC1008
Source text: (§3) Plasmids encoding either the GC1008 heavy chain or light chain were used as a template in PCR-based mutagenesis reactions. Mutations to the encoding DNA were made to create 155 single amino acid substitutions of the encoded heavy chain amino acid sequence and one single amino acid substitution of the encoded light chain amino acid sequence. A QuikChange® Lightning Site-Directed Mutagenesis kit (Agilent Technologies, Santa Clara Calif.) was used according to the manufacturer's instructions to create DNA mutations using a set of forward and reverse primers, either designed for a specific amino acid or for all 20 amino acids with a degenerate codon (NNK). After sequencing confirmation, identified mutant DNA was paired with a wild-type light or heavy chain DNA for transfection into an Expi293F™ host cell suspension (Life Techonologies Corp., Grand Island, N.Y.). At 4 days post-transfection, conditioned media (1 mL) was harvested and purified using a 1 mL Protein A PhyTip® column (PhyNexus, Inc., San Jose, Calif.) and a PureSpeed™ 12-channel pipette (Rainin Instrument LLC, Oakland, Calif.). Purified variant antibody samples were analyzed in duplicate on a Biacore® 3000 (GE Healthcare) at 50 nM concentrations, using the 100 RU level TGFβ1, 2, and 3 immobilized surfaces. The off-rate (kd) of the variants was divided by the kd of the wild-type control to obtain the fold change in the kd. […] A heat map was generated to visualize the results. Variants that completely lost affinity for TGFβ were shown in red without numbers.

human TGFβ3 [8] = molecular target: T2, human TGFβ3; assay: Biacore off-rate vs wt GC1008
Source text: as §3

human TGFβ1 [9] = molecular target: T3, human TGFβ1; assay: Biacore off-rate vs wt GC1008
Source text: as §3

| Binder | KD mutant/KD wt (human TGFβ2 [1]) | KD mutant/KD wt (human TGFβ3 [2]) | KD mutant/KD wt (human TGFβ1 [3]) | kd var/kd wt (human TGFβ2 [4]) | kd var/kd wt (human TGFβ3 [5]) | kd var/kd wt (human TGFβ1 [6]) | kd mutant/kd wt (human TGFβ2 [7]) | kd mutant/kd wt (human TGFβ3 [8]) | kd mutant/kd wt (human TGFβ1 [9]) |
| --- | --- | --- | --- | --- | --- | --- | --- | --- | --- |
| B1 | 0.6 | 0.6 | 1 | 0.8 | 0.7 | 1 | 0.8 | 0.7 | 1 |
| B2 | 0.7 | 0.3 | 0.9 | 0.6 | 0.1 | 0.8 | 0.6 | 0.1 | 0.8 |
| B3 | 1.3 | 0.8 | 2.1 | 1 | 0.7 | 2 | 1 | 0.7 | 2 |
| B4 | 0.5 | 0.6 | 0.9 | 0.3 | 0.3 | 0.8 | 0.3 | 0.3 | 0.8 |
| B5 | 2.4 | 2.6 | 4.1 | 1.4 | 1.6 | 3 | 1.4 | 1.6 | 3 |
| B6 | 0.6 | 1.2 | 1.3 | 0.7 | 1.2 | 1.3 | 0.7 | 1.2 | 1.3 |
| B7 | 2.1 | 3.2 | 2.1 | 1.3 | 1.7 | 2.1 | 1.3 | 1.7 | 2.1 |
| B8 | 1.4 | 3.1 | 1.7 | 1.2 | 1.7 | 2 | 1.2 | 1.7 | 2 |
| B9 | 0.8 | 1 | 1 | 0.8 | 0.7 | 0.6 | 0.8 | 0.7 | 0.6 |
| B10 | 2.6 | 3.7 | 4 | 1.4 | 1.8 | 2.7 | 1.4 | 1.8 | 2.7 |
